Measurements taken from publication doi:10.1101/2025.08.03.668247, “The structure of Egalitarian in complex with the K10 mRNA localization signal reveals a modular binding surface required for function”.

Key:
GST-Egl512-819 [1] = biological target: T1, GST-Egl512-819 (Drosophila melanogaster, UniProt Q9W1K4 512-819); assay: competition; vs FAM-K10 TLS; FA: 20 mM HEPES-NaOH pH 7.5, 100 mM NaCl, 10% glycerol, 20 C, 10 nM FAM-RNA; competition: 150 nM Egl512-819 + 10 nM FAM-K10 TLS, same buffer; details: protein: recombinant, tags: N-terminal GST (TEV site)
T1 sequence: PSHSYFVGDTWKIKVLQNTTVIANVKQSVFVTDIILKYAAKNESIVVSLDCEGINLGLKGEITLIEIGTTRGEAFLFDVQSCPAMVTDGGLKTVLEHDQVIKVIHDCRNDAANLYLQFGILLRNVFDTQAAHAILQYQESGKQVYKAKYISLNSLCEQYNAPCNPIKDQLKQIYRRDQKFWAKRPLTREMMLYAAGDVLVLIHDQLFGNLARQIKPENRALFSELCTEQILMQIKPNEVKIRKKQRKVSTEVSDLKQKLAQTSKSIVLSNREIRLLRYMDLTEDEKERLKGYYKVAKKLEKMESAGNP

GST-Egl512-819 [2] = biological target: T1, GST-Egl512-819; assay: fluorescence anisotropy; FA: 20 mM HEPES-NaOH pH 7.5, 100 mM NaCl, 10% glycerol, 20 C, 10 nM FAM-RNA; competition: 150 nM Egl512-819 + 10 nM FAM-K10 TLS, same buffer; details: protein: recombinant, tags: N-terminal GST (TEV site)
GST-Egl512-819 [3] = biological target: T1, GST-Egl512-819; assay: fluorescence anisotropy; listed as K10-10nt; FA: 20 mM HEPES-NaOH pH 7.5, 100 mM NaCl, 10% glycerol, 20 C, 10 nM FAM-RNA; competition: 150 nM Egl512-819 + 10 nM FAM-K10 TLS, same buffer; details: protein: recombinant; tags: N-terminal GST (TEV site); label: 5'-FAM in direct assay; hairpin, 3' overhang 10 nt
GST-Egl512-819 [4] = biological target: T1, GST-Egl512-819; assay: competition; vs FAM-K10 TLS; none at 40,000-fold excess; FA: 20 mM HEPES-NaOH pH 7.5, 100 mM NaCl, 10% glycerol, 20 C, 10 nM FAM-RNA; competition: 150 nM Egl512-819 + 10 nM FAM-K10 TLS, same buffer; details: protein: recombinant; tags: N-terminal GST (TEV site)
[5] = label: 5'-FAM in direct assay, hairpin

B1: dsDNA (dsDNA)
DNA 1: AGGCAGTTTCTGGTACTCAG
DNA 2: CTGAGTACCAGAAACTGCCT
IC50 (GST-Egl512-819 [1]; blunt): 8890 ± 933 nM

CUUGAUUGUAUUUUUAAAUUAAUUCUUAAAAAUACAAUUAAG (structured_RNA) [K10-Delta b1b2]
Kd (GST-Egl512-819 [2]; [5]): 172 ± 18 nM

CUUGAUUGUAUUUUUAAAUUAAUUCUUAAAAACUACAAAUUAAG (structured_RNA) [K10 TLS (unlabeled)]
IC50 (GST-Egl512-819 [1]; hairpin with two bulges): 53 ± 4 nM

AUUGAUUGUAUUUUUAAAUUAAUUCUUAAAAACUACAAAUUAAU (structured_RNA) [K10-AU]
IC50 (GST-Egl512-819 [1]; hairpin): 67 ± 4 nM

GGCUUGAUUGUAUUUUUAAAUUAAUUCUUAAAAACUACAAAUUAAGCC (structured_RNA) [K10-2GC]
IC50 (GST-Egl512-819 [1]; hairpin with two bulges): 57 ± 6 nM

ACAUGAGGAUUACCCAUGU (structured_RNA) [MS2 stem loop]
IC50 (GST-Egl512-819 [1]; hairpin): 142 ± 13 nM

B2: bcd_VbL (structured_RNA)
RNA: GGGCCCAAAAUGAAAAAUGUUUCUCUUGGGCGUAAUCUCAUACAAUGAUUACCCUUAAAGAUCGAACAUUUAAACAAUAAUAUUUGGG
Kd (GST-Egl512-819 [2]; [5]): 123 ± 13 nM | IC50 (GST-Egl512-819 [1]; [5]): 31 ± 5 nM

AUAUAUAUAUAUAUAUAUAU (ssRNA) [ssRNA (AU20)]
Kd (GST-Egl512-819 [2]; label: 5'-FAM): 137 ± 8 nM

B3: K10-flank (K10-10nt) (structured_RNA)
RNA: CUUGAUUGUAUUUUUAAAUUAAUUCUUAAAAACUACAAAUUAAGAUCACUCUGU
Kd (GST-Egl512-819 [3]): 92 ± 13 nM | IC50 (GST-Egl512-819 [1]; label: 5'-FAM in direct assay, hairpin, 3' overhang 10 nt): 53 ± 2 nM

CUUGAUUGUACUUUUUAAAUUAAUUCUUAAAAAUACAAAUUAAG (structured_RNA) [K10-b1as]
IC50 (GST-Egl512-819 [1]; hairpin): 63 ± 1 nM

AUUGAUUGUACUUUUUAAAUUAAUUCUUAAAAAUACAAAUUAAU (structured_RNA) [K10-b1as-AU]
IC50 (GST-Egl512-819 [1]; hairpin): 87 ± 8 nM

B4: ARF1 dsRNA (dsRNA)
RNA 1: UGAGUGCCAGAAGCUGCCUC
RNA 2: GAGGCAGUUUCUGGUACUCA
IC50 (GST-Egl512-819 [1]; blunt, with G-U wobbles): 102 ± 14 nM

B5: dsRNA (dsRNA)
RNA 1: UGAGUGCCAGAAGCUGCCUC
RNA 2: GAGGCAGCUUCUGGCACUCA
Kd (GST-Egl512-819 [2]; blunt): 192 ± 7 nM

AGGCAGTTTCTGGTACTCAG (ssDNA) [ssDNA]
binding result (GST-Egl512-819 [4]): no binding

GAAUUAAACAUCAAAAAUUCUUAAUUAAAUUUUUAUGUUAGUUC (structured_RNA) [K10-as]
Kd (GST-Egl512-819 [2]; [5]): 102 ± 6 nM

B6: bcd_VbS (structured_RNA)
RNA: AAAUGUUUCUCUUGGGCGUAAUCUCAUACAAUGAUUACCCUUAAAGAUCGAACAUUU
Kd (GST-Egl512-819 [2]; label: 5'-FAM, hairpin): 158 ± 8 nM

UUUUUUUUUUUUUUUUUUUU (ssRNA) [ssRNA (U20)]
Kd (GST-Egl512-819 [2]; label: 5'-FAM): 175 ± 3 nM
